Experiments:
mouse CD20 = molecular target: T1, mouse CD20 (mouse, UniProt P19437 1-291, limits assumed); assay: not described
T1 construct: Named only as mouse CD20
T1 sequence (looked up): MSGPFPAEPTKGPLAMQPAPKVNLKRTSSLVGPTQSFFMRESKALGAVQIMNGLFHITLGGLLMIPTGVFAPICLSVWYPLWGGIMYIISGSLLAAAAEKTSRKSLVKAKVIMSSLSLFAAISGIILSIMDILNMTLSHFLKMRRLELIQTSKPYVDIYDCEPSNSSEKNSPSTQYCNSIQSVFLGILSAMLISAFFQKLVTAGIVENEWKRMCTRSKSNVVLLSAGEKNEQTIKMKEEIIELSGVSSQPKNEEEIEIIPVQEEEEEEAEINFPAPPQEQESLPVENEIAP

human CD20 = molecular target: T2, human CD20 (human, UniProt P11836 1-297); assay: cell-based or functional assay
T2 sequence (looked up): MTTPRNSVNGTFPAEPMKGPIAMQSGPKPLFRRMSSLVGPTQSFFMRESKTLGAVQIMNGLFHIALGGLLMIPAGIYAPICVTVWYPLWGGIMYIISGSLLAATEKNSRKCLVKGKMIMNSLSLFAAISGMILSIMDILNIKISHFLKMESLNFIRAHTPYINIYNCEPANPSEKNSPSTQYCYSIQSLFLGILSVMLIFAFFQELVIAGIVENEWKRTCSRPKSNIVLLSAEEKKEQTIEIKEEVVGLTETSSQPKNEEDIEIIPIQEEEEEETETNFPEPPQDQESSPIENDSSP

B1: XmAb®13676 (XENP13676 Anti-CD20 × Anti-CD3 Fab-scFv-Fc) (bispecific antibody)
heavy: QVQLVQSGAEVKKPGASVKVSCKASGYTFTSYNMHWVRQAPGQGLEWMGAIYPGNGDTSYNQKFQGRVTITADKSISTAYMELSSLRSEDTAVYYCARSTYYGGDWYFNVWGAGTLVTVSSASTKGPSVFPLAPSSKSTSGGTAALGCLVKDYFPEPVTVSWNSGALTSGVHTFPAVLQSSGLYSLSSVVTVPSSSLGTQTYICNVNHKPSDTKVDKKVEPKSCDKTHTCPPCPAPPVAGPSVFLFPPKPKDTLMISRTPEVTCVVVDVKHEDPEVKFNWYVDGVEVHNAKTKPREEEYNSTYRVVSVLTVLHQDWLNGKEYKCKVSNKALPAPIEKTISKAKGQPREPQVYTLPPSREEMTKNQVSLTCDVSGFYPSDIAVEWESDGQPENNYKTTPPVLDSDGSFFLYSKLTVDKSRWEQGDVFSCSVMHEALHNHYTQKSLSLSPGK
chain: not shown
light: QIVLTQSPSSLSASVGDRVTITCRASSSVSYIHWFQQKPGKSPKPLIYATSNLASGVPVRFSGSGSGTDYTLTISSLQPEDFATYYCQQWTSNPPTFGGGTKVEIKRTVAAPSVFIFPPSDEQLKSGTASVVCLLNNFYPREAKVQWKVDNALQSGNSQESVTEQDSKDSTYSLSSTLTLSKADYEKHKVYACEVTHQGLSSPVTKSFNRGEC
notes: The anti-CD20 Fv is derived from murine antibody C2B8; also called plamotamab
- binding result (mouse CD20): no binding
- EC50 of Jeko-1 target cell killing (RTCC) in the presence of 3 µg/ml rituximab (human CD20): 0.051 µg/mL
- EC50 of Jeko-1 target cell killing (RTCC) in the presence of 10 µg/ml rituximab (human CD20): 0.093 µg/mL
- EC50 of Jeko-1 target cell killing (RTCC) in the presence of 30 µg/ml rituximab (human CD20): 0.162 µg/mL
- EC50 of Jeko-1 target cell killing (RTCC) in the presence of 100 µg/ml rituximab (human CD20): 0.387 µg/mL
- EC50 of Jeko-1 target cell killing (RTCC), no rituximab (human CD20): 0.024 µg/mL
- EC50 of RTCC against Ramos cells with purified T cells from six healthy donors (human CD20): 0.0053 to 0.0143 µg/mL

— US20230048390A1 (Xencor, published 2023)
